B1: EHD2-sc-mTNFR2 (mouse) (ligand)
chain: DFTPPTVKILQSSCDGGGHFPPTIQLLCLVSGYTPGTINITWLEDGQVMDVDLSTASTTQEGELASTQSELTLSQKHWLSDRTYTCQVTYQGHTFEDSTKKCADSNGGGSGGGSGGGSGGGSGGGSGGSGIRSDKPVAHVVANHQVEEQLEWLSQRANALLANGMDLKDNQLVVPADGLYLVYSQVLFKGQGCPDYVLLTHTVSRFAISYQEKVNLLSAVKSPCPKDTPEGAELKPWYEPIYLGGVFQLEKGDQLSAEVNLPKYLNFRESGQVYFGVIALGGGGSSSDKPVAHVVANHQVEEQLEWLSQRANALLANGMDLKDNQLVVPADGLYLVYSQVLFKGQGCPDYVLLTHTVSRFAISYQEKVNLLSAVKSPCPKDTPEGAELKPWYEPIYLGGVFQLEKGDQLSAEVNLPKYLNFRESGQVYFGVIALGGGGSSSDKPVAHVVANHQVEEQLEWLSQRANALLANGMDLKDNQLVVPADGLYLVYSQVLFKGQGCPDYVLLTHTVSRFAISYQEKVNLLSAVKSPCPKDTPEGAELKPWYEPIYLGGVFQLEKGDQLSAEVNLPKYLNFRESGQVYFGVIAL
notes: Hexavalent dimer of two subunits; also called hexavalent (EHD2-sc-mTNFR2)
B2: p53-scTNFR2 (human) (ligand)
chain: KKPLDGEYFTLQIRGRERFEMFRELNEALELKDAQAGKEPGAPGGGSGGGSGGGSGGGSGGGSGGSEFLASSRTPSDKPVAHVVANPQAEGQLQWLNRRANALLANGVELRDNQLVVPSEGLYLIYSQVLFKGQGCPSTHVLLTHTISRIAVSYQTKVNLLSAIKSPCQRETPEGAEAKPWYEPIYLGGVFQLEKGDRLSAEINRPDYLNFRESGQVYFGIIALGGGGSSSRTPSDKPVAHVVANPQAEGQLQWLNRRANALLANGVELRDNQLVVPSEGLYLIYSQVLFKGQGCPSTHVLLTHTISRIAVSYQTKVNLLSAIKSPCQRETPEGAEAKPWYEPIYLGGVFQLEKGDRLSAEINRPDYLNFRESGQVYFGIIALGGGGSSSRTPSDKPVAHVVANPQAEGQLQWLNRRANALLANGVELRDNQLVVPSEGLYLIYSQVLFKGQGCPSTHVLLTHTISRIAVSYQTKVNLLSAIKSPCQRETPEGAEAKPWYEPIYLGGVFQLEKGDRLSAEINRPDYLNFRESGQVYFGIIAL
B3: GCN4-sc-mTNFR2 (mouse) (ligand)
chain: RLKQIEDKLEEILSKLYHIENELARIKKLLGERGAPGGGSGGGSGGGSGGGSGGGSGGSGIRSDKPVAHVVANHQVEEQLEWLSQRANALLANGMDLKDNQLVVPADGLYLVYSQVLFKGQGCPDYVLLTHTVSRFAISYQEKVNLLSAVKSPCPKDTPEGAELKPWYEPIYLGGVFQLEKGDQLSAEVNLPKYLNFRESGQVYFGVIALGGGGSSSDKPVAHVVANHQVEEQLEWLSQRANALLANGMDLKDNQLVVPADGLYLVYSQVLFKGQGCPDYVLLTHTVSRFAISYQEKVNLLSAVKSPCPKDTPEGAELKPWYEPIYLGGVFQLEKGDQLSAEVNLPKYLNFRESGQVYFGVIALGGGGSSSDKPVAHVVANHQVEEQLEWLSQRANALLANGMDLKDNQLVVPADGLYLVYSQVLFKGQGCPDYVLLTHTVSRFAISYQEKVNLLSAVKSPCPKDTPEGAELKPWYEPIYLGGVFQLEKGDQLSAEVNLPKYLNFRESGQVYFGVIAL
notes: Dodecavalent tetramer of four subunits
B4: p53-sc-mTNFR2 (mouse) (ligand)
chain: KKPLDGEYFTLQIRGRERFEMFRELNEALELKDAQAGKEPGAPGGGSGGGSGGGSGGGSGGGSGGSGIRSDKPVAHVVANHQVEEQLEWLSQRANALLANGMDLKDNQLVVPADGLYLVYSQVLFKGQGCPDYVLLTHTVSRFAISYQEKVNLLSAVKSPCPKDTPEGAELKPWYEPIYLGGVFQLEKGDQLSAEVNLPKYLNFRESGQVYFGVIALGGGGSSSDKPVAHVVANHQVEEQLEWLSQRANALLANGMDLKDNQLVVPADGLYLVYSQVLFKGQGCPDYVLLTHTVSRFAISYQEKVNLLSAVKSPCPKDTPEGAELKPWYEPIYLGGVFQLEKGDQLSAEVNLPKYLNFRESGQVYFGVIALGGGGSSSDKPVAHVVANHQVEEQLEWLSQRANALLANGMDLKDNQLVVPADGLYLVYSQVLFKGQGCPDYVLLTHTVSRFAISYQEKVNLLSAVKSPCPKDTPEGAELKPWYEPIYLGGVFQLEKGDQLSAEVNLPKYLNFRESGQVYFGVIAL
notes: as for B3
B5: mouse single-chain TNF variant (D221N/A223R, sc-mTNFR2) (ligand)
chain: SDKPVAHVVANHQVEEQLEWLSQRANALLANGMDLKDNQLVVPADGLYLVYSQVLFKGQGCPDYVLLTHTVSRFAISYQEKVNLLSAVKSPCPKDTPEGAELKPWYEPIYLGGVFQLEKGDQLSAEVNLPKYLNFRESGQVYFGVIALGGGGSSSDKPVAHVVANHQVEEQLEWLSQRANALLANGMDLKDNQLVVPADGLYLVYSQVLFKGQGCPDYVLLTHTVSRFAISYQEKVNLLSAVKSPCPKDTPEGAELKPWYEPIYLGGVFQLEKGDQLSAEVNLPKYLNFRESGQVYFGVIALGGGGSSSDKPVAHVVANHQVEEQLEWLSQRANALLANGMDLKDNQLVVPADGLYLVYSQVLFKGQGCPDYVLLTHTVSRFAISYQEKVNLLSAVKSPCPKDTPEGAELKPWYEPIYLGGVFQLEKGDQLSAEVNLPKYLNFRESGQVYFGVIAL
notes: Trivalent single chain; also called TNFR2-selective mouse TNF variant; trivalent (sc-mTNFR2)

Biological target: T1, TNFR2 on human cells (Kym-1 cells; human CD3+ T cells) (human, UniProt P20333 23-461)
T1 sequence (looked up): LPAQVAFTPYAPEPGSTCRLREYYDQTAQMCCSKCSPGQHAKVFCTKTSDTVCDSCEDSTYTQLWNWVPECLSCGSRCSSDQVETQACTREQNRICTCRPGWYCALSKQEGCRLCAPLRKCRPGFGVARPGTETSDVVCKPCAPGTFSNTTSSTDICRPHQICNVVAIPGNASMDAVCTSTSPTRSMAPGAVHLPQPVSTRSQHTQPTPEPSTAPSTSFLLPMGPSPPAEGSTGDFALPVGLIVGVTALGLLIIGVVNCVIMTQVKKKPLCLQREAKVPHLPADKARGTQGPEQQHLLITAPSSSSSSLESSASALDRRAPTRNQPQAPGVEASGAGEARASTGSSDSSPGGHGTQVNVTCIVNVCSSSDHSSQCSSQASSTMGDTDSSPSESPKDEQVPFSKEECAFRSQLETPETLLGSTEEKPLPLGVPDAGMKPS
Test: cell-based or functional assay

Binder	EC50 values (nM) of cell death induction using Kym-1 cells
B1	0.453 nM
B2	0.0106 nM
B3	0.0057 nM
B4	0.0562 nM

Biological target: T2, TNFR2 on primary mouse cells (thymocytes and CD3+ T cells of C57BL/6 mice) (mouse, UniProt P25119 23-474)
T2 sequence (looked up): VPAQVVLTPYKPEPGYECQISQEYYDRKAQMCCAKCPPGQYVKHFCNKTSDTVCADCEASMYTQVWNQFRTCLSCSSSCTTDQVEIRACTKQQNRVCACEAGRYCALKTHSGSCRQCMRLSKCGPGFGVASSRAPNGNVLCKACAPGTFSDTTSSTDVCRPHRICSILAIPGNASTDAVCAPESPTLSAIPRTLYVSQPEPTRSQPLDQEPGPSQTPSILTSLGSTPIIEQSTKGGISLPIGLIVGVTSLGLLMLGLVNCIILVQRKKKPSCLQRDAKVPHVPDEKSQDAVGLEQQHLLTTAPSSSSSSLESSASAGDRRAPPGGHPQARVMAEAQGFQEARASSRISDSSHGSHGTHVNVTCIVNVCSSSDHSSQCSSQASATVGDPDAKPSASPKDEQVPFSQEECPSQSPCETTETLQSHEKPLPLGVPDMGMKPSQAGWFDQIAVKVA
Test: cell-based or functional assay

EC50 values (nM) of thymocyte proliferation induction (MTT assay)	Binder
0.07 nM	B1
0.0185 nM	B3
0.065 nM	B4

Biological target: T3, TNFR2 on BV-2 cells (UniProt P25119 23-474, limits assumed)
T3 sequence (looked up): T2 sequence (looked up)
Test: cell-based or functional assay

EC50 values (nM) of Cxcl-2 secretion (BV-2 cells, ELISA)	Binder
0.44 nM	B1
1.07 nM	B5
0.03 nM	B3
0.13 nM	B4

Biological target: T4, mouse TNFR2-Fc fusion protein (mouse, UniProt P25119 23-258, limits assumed)
T4 construct: also called mTNFR2-Fc; mTNFR2
T4 sequence (looked up): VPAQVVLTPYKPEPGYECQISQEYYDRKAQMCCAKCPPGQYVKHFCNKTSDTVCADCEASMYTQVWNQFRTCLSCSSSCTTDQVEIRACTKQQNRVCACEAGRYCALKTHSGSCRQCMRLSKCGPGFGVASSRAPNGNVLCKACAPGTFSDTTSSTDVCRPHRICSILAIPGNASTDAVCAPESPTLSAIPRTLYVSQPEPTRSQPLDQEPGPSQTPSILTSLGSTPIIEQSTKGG
Test: ELISA, mTNFR2-Fc coated at 1 µg/ml, bound protein detected with anti-TNF F6C5
Description: (§1) ELISA plates (Greiner, Frickenhausen, Germany) were coated with huTNFR1-Fc, mTNFR1-Fc, huTNFR2-Fc or mTNFR2-Fc fusion proteins at 1 μg/ml in PBS and incubated at 4° C. overnight. Residual binding sites were blocked with 2% skim milk powder in PBS at RT for 2 hours. ScTNFR2 and the complexes were diluted in 2% skim milk powder in PBS and added at concentrations in the range of 10⁻³ to 10 nM and incubated for 1 hour at RT. Between each step, non-bound proteins were removed by washing 4 times with 0.005% Tween-20 in PBS.
(§2) Bound proteins were detected with mouse monoclonal antibodies to TNF (clone F6C5; 1 μg/ml; incubation for 1 hour at RT) and HRP-conjugated anti-mouse IgG antibodies (diluted 1:10000; incubation for 1 hour at RT), followed by incubation with tetramethylbenzidine (TMB) substrate solution. Reaction was stopped by addition of 1 M H₂SO₄ and the absorbance at 450 nm was determined with a Multiskan FC absorbance reader (Thermo Scientific, Karlsruhe, Germany) and data were analyzed using the software Microsoft Excel and GraphPad Prism 4 (GraphPad, La Jolla, Calif.) (FIG. 5). In Table 3, the calculated EC₅₀ values for the binding of TNF, scTNFR2 and the complexes to immobilized huTNFR2 and mTNFR2 based on the ELISA assay are summarized.

EC50	Binder
0.112 nM	B1
1.55 nM	B5
0.0452 nM	B3
0.0744 nM	B4

Biological target: T5, human TNFR2-Fc fusion protein (human, UniProt P20333 23-257)
T5 construct: also called huTNFR2-Fc; huTNFR2
T5 sequence (looked up): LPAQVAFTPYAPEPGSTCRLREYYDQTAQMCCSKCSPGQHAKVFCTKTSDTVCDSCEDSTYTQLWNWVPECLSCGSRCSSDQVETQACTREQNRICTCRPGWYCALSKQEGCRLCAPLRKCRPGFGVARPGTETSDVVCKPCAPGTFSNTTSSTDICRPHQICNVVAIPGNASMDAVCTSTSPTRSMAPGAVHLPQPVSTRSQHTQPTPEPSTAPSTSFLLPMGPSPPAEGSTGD
Test: ELISA, huTNFR2-Fc coated at 1 µg/ml, bound protein detected with anti-TNF F6C5
Description: as §1, §2

EC50	Binder
0.094 nM	B2

Biological target: T5, human TNFR2-Fc fusion protein
Test: quartz crystal microbalance (Attana Cell 200), human TNFR2-Fc immobilised at low density (130 Hz), 37° C
Description: (§3) Affinities of scTNFR2 and the complexes for human TNFR2-Fc were further determined by quartz crystal microbalance measurements using an Attana Cell 200 (Attana, Stockholm, Sweden). Human TNFR2-Fc was chemically immobilized on a carboxyl sensor chip according to the manufacturer's protocol at a high and low density, respectively. Binding experiments were performed in PBST buffer (PBS, 0.1% Tween 20, pH 7.4) with a flow rate of […] at 37° C. The chip was regenerated with 10 mM Glycine-HCl, pH 2.0. Before each measurement, a baseline was measured which was subtracted from the binding curve. Data were collected using the software provided by Attana for the particular device and analyzed by Attaché Office Evaluation software (Attana, Stockholm, Sweden) and TraceDrawer (Ridgview Instruments, Vange, Sweden) (FIG. 6). In Table 4, binding values for the binding of the hexavalent and dodecavalent mouse complexes to TNFR2 are summarized, which have been calculated based on quartz crystal microbalance measurements on a low density chip. In Table 5, binding values for the binding of the sc-mTNFR2 and the hexavalent and dodecavalent mouse proteins to TNFR2 are summarized, which have been calculated based on quartz crystal microbalance measurements on a high density chip.

Kd	koff	kon	Binder
118 nM	0.063 s⁻¹	533000 M⁻¹ s⁻¹	B1
16.1 nM	0.0347 s⁻¹	2.16e+06 M⁻¹ s⁻¹	B3
50.9 nM	0.0651 s⁻¹	1.28e+06 M⁻¹ s⁻¹	B4

Biological target: T5, human TNFR2-Fc fusion protein
Test: quartz crystal microbalance (Attana Cell 200), human TNFR2-Fc immobilised at high density (270 Hz), 37° C
Description: as §3

Kd	koff	kon	Binder
0.0615 nM	3.74e-05 s⁻¹	607000 M⁻¹ s⁻¹	B1
0.449 nM	0.000399 s⁻¹	808000 M⁻¹ s⁻¹	B5
0.0527 nM	8.77e-05 s⁻¹	1.67e+06 M⁻¹ s⁻¹	B3
0.0437 nM	2.69e-05 s⁻¹	616000 M⁻¹ s⁻¹	B4

Reference: patent US20210395323A1 (UNIVERSIT T STUTTGART, published 2021)
